One series addresses T1, FMO-2 (Caenorhabditis elegans, UniProt G5EBJ9).
T1 construct: purified FMO-2 protein purchased from GenScript
T1 sequence (G5EBJ9 1-529): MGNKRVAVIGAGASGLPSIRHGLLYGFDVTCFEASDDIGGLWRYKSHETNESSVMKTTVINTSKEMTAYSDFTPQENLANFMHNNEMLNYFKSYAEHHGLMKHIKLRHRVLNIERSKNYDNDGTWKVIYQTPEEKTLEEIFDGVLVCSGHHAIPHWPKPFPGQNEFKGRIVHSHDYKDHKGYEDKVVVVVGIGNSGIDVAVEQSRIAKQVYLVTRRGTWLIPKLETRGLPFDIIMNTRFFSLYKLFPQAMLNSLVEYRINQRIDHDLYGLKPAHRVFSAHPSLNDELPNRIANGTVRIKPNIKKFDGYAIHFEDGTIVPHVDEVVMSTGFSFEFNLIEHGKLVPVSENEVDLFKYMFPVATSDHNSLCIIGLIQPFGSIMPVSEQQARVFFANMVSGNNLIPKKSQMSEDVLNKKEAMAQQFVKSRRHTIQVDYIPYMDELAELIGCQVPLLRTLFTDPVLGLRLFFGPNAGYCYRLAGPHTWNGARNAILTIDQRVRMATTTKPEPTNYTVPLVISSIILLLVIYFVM
Kind of series: NADPH consumption at […] nm, Michaelis-Menten fit. Type of series: biochemical. The conditions noted are these: 0.5 mM NADPH, excess FAD, 25 mM sodium phosphate pH 8.5, 0.5 mM DETAPAC, 30 C; 0.1-10 mM substrate.

Substrate in the series “purified protein”: CC(=O)C(=O)O
The experiment in a line: purified protein. Type of series: biochemical, Caenorhabditis elegans. The conditions noted are these: 0.5 mM NADPH, excess FAD, 25 mM sodium phosphate pH 8.5, 0.5 mM DETAPAC, 30 C.

Our source for the Km, kcat and kcat/Km values is article PMC12551704, “Metabolic regulation of behavior by the intestinal enzyme FMO-2” (Science Advances, 2025).

Take `N[C@@H](Cc1c[nH]c2ccccc12)C(=O)O` [tryptophan]: at FMO-2, the Km stood at 880 ± 430 µM.

B1: FMO-2 (Caenorhabditis elegans) (protein)
chain: MGNKRVAVIGAGASGLPSIRHGLLYGFDVTCFEASDDIGGLWRYKSHETNESSVMKTTVINTSKEMTAYSDFTPQENLANFMHNNEMLNYFKSYAEHHGLMKHIKLRHRVLNIERSKNYDNDGTWKVIYQTPEEKTLEEIFDGVLVCSGHHAIPHWPKPFPGQNEFKGRIVHSHDYKDHKGYEDKVVVVVGIGNSGIDVAVEQSRIAKQVYLVTRRGTWLIPKLETRGLPFDIIMNTRFFSLYKLFPQAMLNSLVEYRINQRIDHDLYGLKPAHRVFSAHPSLNDELPNRIANGTVRIKPNIKKFDGYAIHFEDGTIVPHVDEVVMSTGFSFEFNLIEHGKLVPVSENEVDLFKYMFPVATSDHNSLCIIGLIQPFGSIMPVSEQQARVFFANMVSGNNLIPKKSQMSEDVLNKKEAMAQQFVKSRRHTIQVDYIPYMDELAELIGCQVPLLRTLFTDPVLGLRLFFGPNAGYCYRLAGPHTWNGARNAILTIDQRVRMATTTKPEPTNYTVPLVISSIILLLVIYFVM
notes: purified FMO-2 protein purchased from GenScript
With B1, in “purified protein”, the Michaelis constant (Km) came to 590 ± 290 µM, the kcat was 35 ± 1 s⁻¹ and the catalytic efficiency (kcat/Km) was 59000 M⁻¹ s⁻¹.

One may read the Km as the substrate concentration at which the rate is half of its maximum. What is called kcat is the number of substrate molecules converted per active site and unit of time at saturation. What is called kcat/Km is the second-order rate constant that governs catalysis at low substrate concentration.
